molecular target: recombinant human PD-L1, Fc-tagged (rhPD-L1-Fc) (human, UniProt Q9NZQ7 19-238); experiment: FACS
Sequence (Q9NZQ7 19-238): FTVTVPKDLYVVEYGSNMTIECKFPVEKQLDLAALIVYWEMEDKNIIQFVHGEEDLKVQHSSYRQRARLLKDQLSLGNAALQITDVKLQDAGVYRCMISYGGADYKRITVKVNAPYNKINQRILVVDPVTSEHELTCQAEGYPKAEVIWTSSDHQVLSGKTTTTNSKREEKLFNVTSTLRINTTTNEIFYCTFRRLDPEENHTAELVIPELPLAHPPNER

Kd [nM] | Binder
0.46 | scFv-yeast clone 3_17 (scFv, V domains shown) VH: not shown VL: NFMLTQPHSVSESPGKTITISCTRSSGSIAGNYVQWYQQRPGSAPIIVIYEDNQRPSGVPDRFSGSIDSSSNSASLTISRLKTEDEADYYCQSYEASNVVFGGGTKLTVL
0.73 | scFv-yeast clone 10_12 (scFv, V domains shown) VH: not shown VL: NFMLTQPHSVSESPGKTITISCTRSSGSIAGNYVQWYQQRPGSAPIIVIYEDNQRPSGVPDRFSGSIDSSSNSASLTISRLKTEDEADYYCQSYEASNVVFGGGTKLTVL
0.58 | scFv-yeast clone 3_14 (scFv, V domains shown) VH: not shown VL: NFMLTQPHSVSESPGKTITISCTRSSGSIAGNYVQWYQQRPGSAPIIVIYEDNQRPSGVPDRFSGSIDSSSNSASLTISRLKTEDEADYYCQSYEASNVVFGGGTKLTVL
0.5 | scFv-yeast clone 10_3 (scFv, V domains shown) VH: not shown VL: NFMLTQPHSVSESPGKTITISCTRSSGSIAGNYVQWYQQRPGSAPIIVIYEDNQRPSGVPDRFSGSIDSSSNSASLTISRLKTEDEADYYCQSYEASNVVFGGGTKLTVL
0.6 | scFv-yeast clone 3_3 (scFv, V domains shown) VH: not shown VL: NFMLTQPHSVSESPGKTITISCTRSSGSIAGNYVQWYQQRPGSAPIIVIYEDNQRPSGVPDRFSGSIDSSSNSASLTISRLKTEDEADYYCQSYEASNVVFGGGTKLTVL
4.55 | wild type anti-PD-L1 scFv PD-L1_1 displayed on yeast (scFv, V domains shown) VH: not shown VL: NFMLTQPHSVSESPGKTITISCTRSSGSIAGNYVQWYQQRPGSAPIIVIYEDNQRPSGVPDRFSGSIDSSSNSASLTISRLKTEDEADYYCQSYEASNVVFGGGTKLTVL
0.68 | scFv-yeast clone 3_7 (scFv, V domains shown) VH: not shown VL: NFMLTQPHSVSESPGKTITISCTRSSGSIAGNYVQWYQQRPGSAPIIVIYEDNQRPSGVPDRFSGSIDSSSNSASLTISRLKTEDEADYYCQSYEASNVVFGGGTKLTVL

molecular target: PD-L1 expressed in its native conformation on activated human PBMCs (human (endogenous in hPBMCs), UniProt Q9NZQ7 19-290); experiment: FACS
Sequence (Q9NZQ7 19-290): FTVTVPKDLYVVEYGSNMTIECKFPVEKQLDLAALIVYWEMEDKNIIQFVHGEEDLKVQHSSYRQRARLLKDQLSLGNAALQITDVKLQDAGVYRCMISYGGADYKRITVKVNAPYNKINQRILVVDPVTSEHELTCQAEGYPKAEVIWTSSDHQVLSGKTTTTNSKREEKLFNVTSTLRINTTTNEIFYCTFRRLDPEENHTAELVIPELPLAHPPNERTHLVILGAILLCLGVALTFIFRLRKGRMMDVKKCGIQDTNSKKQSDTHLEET

Kd [nM] | Binder
2 | mAb 10_3 (IgG4 converted from scFv 10_3) (antibody, V domains shown) VH: not shown VL: NFMLTQPHSVSESPGKTITISCTRSSGSIAGNYVQWYQQRPGSAPIIVIYEDNQRPSGVPDRFSGSIDSSSNSASLTISRLKTEDEADYYCQSYEASNVVFGGGTKLTVL

Source: publication PMC6959147 (2019)
